Assay results as given in paper PMC11407402.
Where “and” joins values, the source holds several entries; their conditions need not be identical. Equal values may be shown once.

Target: non-glycosylated recombinant FcγRIIIa, 158 V allele, immobilised in the TSKgel FcγR-IIIA-NPR column
Test: affinity HPLC on immobilised receptor

elution time: 14.4 min and 16.2 min and 17.9 min
mean elution time: 15.5 min
Substance: anti-CD20 antibody (rituximab V regions), wild-type human IgG1
